# Molecular target: human phosphopantetheinyl transferase (human) (UniProt Q9NRN7)
substance,measurement,value
"ACP domain of human fatty acid synthase with the hydrophobic patch Leu2157, Met2158, Val2160 replaced by alanine (from UniProt P49327 2117-2205) (domain or fragment)",Km for ACP in the PPT reaction after replacement of the hydrophobic patch by alanines (data not shown),> 1000 fold
